Target: T1, Dcc1 C-terminus WT (Saccharomyces cerevisiae, UniProt P25559 90-380)
T1 sequence: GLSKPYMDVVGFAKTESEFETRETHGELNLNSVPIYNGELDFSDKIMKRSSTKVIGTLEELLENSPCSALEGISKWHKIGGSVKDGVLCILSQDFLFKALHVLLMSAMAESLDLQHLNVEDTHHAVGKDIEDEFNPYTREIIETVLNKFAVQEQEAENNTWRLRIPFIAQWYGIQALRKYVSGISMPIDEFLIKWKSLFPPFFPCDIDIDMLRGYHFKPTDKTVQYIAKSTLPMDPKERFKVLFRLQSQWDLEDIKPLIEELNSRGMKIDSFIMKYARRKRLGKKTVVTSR
Experiment: EMSA; 1 uM DNA; EMSA, 6% native gel in 0.5x TBE, 4 C, DNA 1 uM unless stated; binding buffer, salt and pH not stated (protein storage 10 mM Tris pH 7.5, 150 mM NaCl, 0.5 mM TCEP for the complex)
Details: protein: recombinant, tags: expressed by the complex protocol

B1: 22-mer dsDNA (dsDNA)
DNA 1: TCTCCACAGGAAACGGAGGGGT
DNA 2: ACCCCTCCGTTTCCTGTGGAGA
- binding result (label: 5' 6-FAM on sense strand): binds

Binder: TTTTTTTTTTTTTTTTTTTTTTTTT (ssDNA) [25-mer oligo d(T)]
- binding result (label: 5' 6-FAM): binds
